Measured values published in US20230183713A1, “SITE-SPECIFIC RECOMBINASES FOR EFFICIENT AND SPECIFIC GENOME EDITING” (TECHNISCHE UNIVERSITÄt DRESDEN, published 2023).

T1: Cre recombinase monomer with Q311R mutation
T1 chain: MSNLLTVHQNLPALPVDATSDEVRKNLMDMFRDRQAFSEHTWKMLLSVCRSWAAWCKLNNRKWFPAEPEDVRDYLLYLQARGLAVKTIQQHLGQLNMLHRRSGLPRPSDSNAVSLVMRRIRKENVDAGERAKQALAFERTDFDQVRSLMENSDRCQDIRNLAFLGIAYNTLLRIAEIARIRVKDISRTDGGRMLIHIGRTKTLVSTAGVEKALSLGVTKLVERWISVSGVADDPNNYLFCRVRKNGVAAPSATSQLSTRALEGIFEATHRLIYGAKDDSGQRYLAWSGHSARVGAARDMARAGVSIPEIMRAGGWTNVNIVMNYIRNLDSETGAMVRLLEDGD

T2: Cre recombinase monomer with R292A mutation
T2 chain: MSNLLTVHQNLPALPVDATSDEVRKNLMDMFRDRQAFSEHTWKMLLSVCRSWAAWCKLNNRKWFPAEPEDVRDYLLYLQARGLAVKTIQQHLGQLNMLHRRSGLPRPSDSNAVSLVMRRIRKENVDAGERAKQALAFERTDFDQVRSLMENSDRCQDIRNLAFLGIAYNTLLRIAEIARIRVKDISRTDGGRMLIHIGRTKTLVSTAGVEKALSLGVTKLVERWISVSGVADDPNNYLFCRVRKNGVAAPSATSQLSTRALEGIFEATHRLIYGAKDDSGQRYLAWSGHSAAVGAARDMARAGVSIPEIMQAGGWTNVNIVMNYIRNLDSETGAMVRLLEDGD

T3: Cre recombinase monomer with K201A mutation
T3 chain: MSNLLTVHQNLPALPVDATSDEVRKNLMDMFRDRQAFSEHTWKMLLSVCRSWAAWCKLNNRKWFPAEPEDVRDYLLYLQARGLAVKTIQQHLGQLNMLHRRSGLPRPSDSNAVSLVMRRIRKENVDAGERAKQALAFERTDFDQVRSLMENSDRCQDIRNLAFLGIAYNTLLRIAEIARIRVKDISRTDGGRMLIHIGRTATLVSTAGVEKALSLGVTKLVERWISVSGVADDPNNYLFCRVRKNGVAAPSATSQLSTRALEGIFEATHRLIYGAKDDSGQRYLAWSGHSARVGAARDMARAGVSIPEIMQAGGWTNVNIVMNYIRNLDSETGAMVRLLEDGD

T4: Cre recombinase monomer with R292S mutation
T4 chain: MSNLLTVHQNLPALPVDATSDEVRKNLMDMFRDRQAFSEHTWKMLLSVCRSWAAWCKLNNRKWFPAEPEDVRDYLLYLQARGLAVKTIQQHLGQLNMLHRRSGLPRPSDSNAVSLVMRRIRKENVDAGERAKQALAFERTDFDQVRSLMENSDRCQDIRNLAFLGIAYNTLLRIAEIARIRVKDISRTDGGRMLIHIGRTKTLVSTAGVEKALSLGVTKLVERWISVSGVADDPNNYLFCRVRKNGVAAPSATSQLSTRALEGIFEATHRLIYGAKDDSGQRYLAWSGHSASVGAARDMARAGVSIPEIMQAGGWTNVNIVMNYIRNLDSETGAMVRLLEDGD

T5: Cre recombinase monomer with R292E mutation
T5 chain: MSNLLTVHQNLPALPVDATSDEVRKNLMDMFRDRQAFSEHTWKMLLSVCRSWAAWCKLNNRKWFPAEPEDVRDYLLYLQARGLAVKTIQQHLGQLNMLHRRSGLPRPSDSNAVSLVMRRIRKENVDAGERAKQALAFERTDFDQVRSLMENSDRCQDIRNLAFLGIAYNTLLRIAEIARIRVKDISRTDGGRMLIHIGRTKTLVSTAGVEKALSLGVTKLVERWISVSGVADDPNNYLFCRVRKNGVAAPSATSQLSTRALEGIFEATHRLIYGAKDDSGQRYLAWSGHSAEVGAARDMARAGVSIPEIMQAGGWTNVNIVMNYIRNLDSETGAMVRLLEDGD

T6: Cre recombinase monomer with Y324W mutation
T6 chain: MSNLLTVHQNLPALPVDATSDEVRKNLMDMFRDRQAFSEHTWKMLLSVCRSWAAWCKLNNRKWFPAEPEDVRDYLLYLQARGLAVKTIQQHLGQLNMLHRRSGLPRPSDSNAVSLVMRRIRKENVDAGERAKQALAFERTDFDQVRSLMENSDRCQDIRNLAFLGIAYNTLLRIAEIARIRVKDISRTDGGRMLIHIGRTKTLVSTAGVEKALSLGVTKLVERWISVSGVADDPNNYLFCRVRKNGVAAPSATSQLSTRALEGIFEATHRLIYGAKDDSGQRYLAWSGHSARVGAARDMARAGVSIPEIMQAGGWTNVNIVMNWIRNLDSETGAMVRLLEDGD

T7: Cre recombinase monomer with Y324F mutation
T7 chain: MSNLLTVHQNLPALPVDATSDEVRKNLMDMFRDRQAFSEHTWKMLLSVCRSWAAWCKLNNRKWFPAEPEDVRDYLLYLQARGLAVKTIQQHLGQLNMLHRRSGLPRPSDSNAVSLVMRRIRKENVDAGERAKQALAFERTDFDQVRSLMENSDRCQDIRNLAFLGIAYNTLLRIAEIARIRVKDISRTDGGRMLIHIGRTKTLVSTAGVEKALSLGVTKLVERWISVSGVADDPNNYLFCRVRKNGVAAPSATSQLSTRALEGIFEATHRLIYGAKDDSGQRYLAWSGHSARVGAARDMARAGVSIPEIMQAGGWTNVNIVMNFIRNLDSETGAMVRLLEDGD

T8: Cre recombinase monomer with R292M mutation
T8 chain: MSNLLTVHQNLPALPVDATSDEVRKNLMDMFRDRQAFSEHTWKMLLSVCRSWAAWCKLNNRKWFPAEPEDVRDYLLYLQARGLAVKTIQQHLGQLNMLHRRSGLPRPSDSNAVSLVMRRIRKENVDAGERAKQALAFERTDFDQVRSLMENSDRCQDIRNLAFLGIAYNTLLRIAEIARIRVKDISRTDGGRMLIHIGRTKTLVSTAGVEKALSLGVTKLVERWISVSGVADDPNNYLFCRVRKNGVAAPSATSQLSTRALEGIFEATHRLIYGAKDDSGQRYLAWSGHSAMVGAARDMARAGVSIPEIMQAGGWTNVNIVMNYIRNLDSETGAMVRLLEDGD

T9: Cre recombinase monomer with R292I mutation
T9 chain: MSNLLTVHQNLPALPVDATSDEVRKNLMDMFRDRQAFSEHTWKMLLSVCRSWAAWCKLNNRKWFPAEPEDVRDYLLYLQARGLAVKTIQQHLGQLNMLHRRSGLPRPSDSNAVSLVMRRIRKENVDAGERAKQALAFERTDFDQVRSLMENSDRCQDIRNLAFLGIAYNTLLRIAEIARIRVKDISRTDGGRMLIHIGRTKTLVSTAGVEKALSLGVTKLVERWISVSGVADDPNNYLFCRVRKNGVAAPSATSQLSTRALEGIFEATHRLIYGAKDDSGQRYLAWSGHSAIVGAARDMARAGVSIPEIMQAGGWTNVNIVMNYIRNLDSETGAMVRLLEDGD

T10: Cre recombinase monomer with R292T mutation
T10 chain: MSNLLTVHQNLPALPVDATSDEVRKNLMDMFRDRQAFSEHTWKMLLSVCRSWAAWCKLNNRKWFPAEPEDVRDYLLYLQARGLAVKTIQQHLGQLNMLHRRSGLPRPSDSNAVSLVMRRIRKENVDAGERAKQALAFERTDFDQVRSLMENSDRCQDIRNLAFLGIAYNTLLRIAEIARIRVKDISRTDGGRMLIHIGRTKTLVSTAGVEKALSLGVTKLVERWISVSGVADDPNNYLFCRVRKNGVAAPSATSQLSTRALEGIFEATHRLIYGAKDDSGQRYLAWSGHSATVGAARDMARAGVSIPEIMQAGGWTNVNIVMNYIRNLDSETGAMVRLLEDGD

T11: Cre recombinase monomer with R292N mutation
T11 chain: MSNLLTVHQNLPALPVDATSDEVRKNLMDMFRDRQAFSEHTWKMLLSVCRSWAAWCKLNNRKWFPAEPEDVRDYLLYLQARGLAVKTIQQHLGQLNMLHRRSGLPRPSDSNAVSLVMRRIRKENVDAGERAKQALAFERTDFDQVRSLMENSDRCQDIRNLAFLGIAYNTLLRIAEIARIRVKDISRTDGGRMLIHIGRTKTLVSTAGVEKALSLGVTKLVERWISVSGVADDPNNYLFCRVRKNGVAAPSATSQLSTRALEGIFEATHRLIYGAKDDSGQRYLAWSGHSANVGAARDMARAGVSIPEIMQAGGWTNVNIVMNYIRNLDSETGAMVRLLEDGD

B1: Cre recombinase monomer with E176H mutation (protein)
chain: MSNLLTVHQNLPALPVDATSDEVRKNLMDMFRDRQAFSEHTWKMLLSVCRSWAAWCKLNNRKWFPAEPEDVRDYLLYLQARGLAVKTIQQHLGQLNMLHRRSGLPRPSDSNAVSLVMRRIRKENVDAGERAKQALAFERTDFDQVRSLMENSDRCQDIRNLAFLGIAYNTLLRIAHIARIRVKDISRTDGGRMLIHIGRTKTLVSTAGVEKALSLGVTKLVERWISVSGVADDPNNYLFCRVRKNGVAAPSATSQLSTRALEGIFEATHRLIYGAKDDSGQRYLAWSGHSARVGAARDMARAGVSIPEIMQAGGWTNVNIVMNYIRNLDSETGAMVRLLEDGD
B2: Cre recombinase monomer with E176I mutation (protein)
chain: MSNLLTVHQNLPALPVDATSDEVRKNLMDMFRDRQAFSEHTWKMLLSVCRSWAAWCKLNNRKWFPAEPEDVRDYLLYLQARGLAVKTIQQHLGQLNMLHRRSGLPRPSDSNAVSLVMRRIRKENVDAGERAKQALAFERTDFDQVRSLMENSDRCQDIRNLAFLGIAYNTLLRIAIIARIRVKDISRTDGGRMLIHIGRTKTLVSTAGVEKALSLGVTKLVERWISVSGVADDPNNYLFCRVRKNGVAAPSATSQLSTRALEGIFEATHRLIYGAKDDSGQRYLAWSGHSARVGAARDMARAGVSIPEIMQAGGWTNVNIVMNYIRNLDSETGAMVRLLEDGD
B3: Cre recombinase monomer with E176V mutation (protein)
chain: MSNLLTVHQNLPALPVDATSDEVRKNLMDMFRDRQAFSEHTWKMLLSVCRSWAAWCKLNNRKWFPAEPEDVRDYLLYLQARGLAVKTIQQHLGQLNMLHRRSGLPRPSDSNAVSLVMRRIRKENVDAGERAKQALAFERTDFDQVRSLMENSDRCQDIRNLAFLGIAYNTLLRIAVIARIRVKDISRTDGGRMLIHIGRTKTLVSTAGVEKALSLGVTKLVERWISVSGVADDPNNYLFCRVRKNGVAAPSATSQLSTRALEGIFEATHRLIYGAKDDSGQRYLAWSGHSARVGAARDMARAGVSIPEIMQAGGWTNVNIVMNYIRNLDSETGAMVRLLEDGD

Key:
[1] = target: T1, Cre recombinase monomer with Q311R …
[2] = target: T2, Cre recombinase monomer with R292A …
[3] = target: T3, Cre recombinase monomer with K201A …
[4] = target: T4, Cre recombinase monomer with R292S …
[5] = target: T5, Cre recombinase monomer with R292E …
[6] = target: T6, Cre recombinase monomer with Y324W …
[7] = target: T7, Cre recombinase monomer with Y324F …
[8] = target: T8, Cre recombinase monomer with R292M …
[9] = target: T9, Cre recombinase monomer with R292I …
[10] = target: T10, Cre recombinase monomer with R292T …
[11] = target: T11, Cre recombinase monomer with R292N …

| Protein | Median dimer activity (recombination on loxP) [1] | Median dimer activity (recombination on loxP) [2] | Median dimer activity (recombination on loxP) [3] | Median dimer activity (recombination on loxP) [4] | Median dimer activity (recombination on loxP) [5] | Median dimer activity (recombination on loxP) [6] | Median dimer activity (recombination on loxP) [7] | Median dimer activity (recombination on loxP) [8] | Median dimer activity (recombination on loxP) [9] | Median dimer activity (recombination on loxP) [10] | Median dimer activity (recombination on loxP) [11] |
| --- | --- | --- | --- | --- | --- | --- | --- | --- | --- | --- | --- |
| B1 | 51% | 55% | 33% | 68% | 38% |  |  |  |  |  |  |
| B2 | 36% |  |  | 40% |  | 50% | 67% | 43% |  |  |  |
| B3 |  |  |  | 28% |  |  |  |  | 33% | 45% | 31% |
